This series can be described thus: protein stability index of a GFP-peptide fusion (GPS, HEK-293T) (PSI 1-6); higher = more stable.
[1] abbreviates: treatment: DMSO, c terminus: a fixed tail appended.
[2] abbreviates: treatment: MLN4924 1 uM, 8 h, c terminus: a fixed tail appended.

± gives the standard deviation.
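Further: 24-mer peptide tiles fused after GFP, lentivirally expressed, FACS-sorted into six equal bins by GFP/DsRed ratio, decoded by Illumina sequencing, PSI is the read-weighted mean bin number.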

For AAAGLHASPMSADRVVAFMDHIRI [NR2F2], the protein stability index by setting is: under setting [1], 2.25 ± 0.4; under setting [2], 2.26 ± 0.34. As to AAARPSSCRRKQEDDRDGLLAERE [TMEM106C], the protein stability index was found to be 5.18 ± 0.25 under setting [1] and 5.3 ± 0.34 under setting [2].

AASEAGRAMHLMKKREKQREQMEQ [FAM50A] gave a protein stability index under setting [1] of 5.05 ± 0.25 and a protein stability index under setting [2] of 4.87 ± 0.17. AAVPGTQLSPSPTPASQSPKKPPA [SNAP91]: the protein stability index is 5.44 ± 0.25 under setting [1] and 5.37 ± 0.33 under setting [2]. The matching figures for ACKSLQTRQNGIQTNKPALRAVRQ [STX5]: 4.07 ± 0.17 and 3.95 ± 0.2. In the case of ACLIVMFLPEKKDTGVFAVVNSHS [SLC22A15], the protein stability index turned out to be 3.22 ± 0.56 under setting [1] and 2.12 ± 0.19 under setting [2].

ACSEGDVNAVRKLLIEGRSVNEHT [ANKRD17] came in with a protein stability index under setting [1] of 4.22 ± 0.45 and a protein stability index under setting [2] of 4.64 ± 0.11. With AEEAESHFSSIPDAFWWAVVSMTT [KCNA1], the protein stability index is 2.11 ± 0.31 under setting [1] and 2.1 ± 0.24 under setting [2]. Regarding AEFMRNFQKGQVTRDGFKLVMASL [HMOX1], the protein stability index under setting [1] was found to be 2.33 ± 0.75 and the protein stability index under setting [2] stood at 2.26 ± 0.16. AEHNLVLFRKDVDDATLSRLELER [PRPH] yielded a protein stability index under setting [1] of 4.45 ± 0.19 and a protein stability index under setting [2] of 4.51 ± 0.16.

In the case of AEHWKHKKEESGRERKKNWGGQED [PBXIP1], the protein stability index stood at 5.24 ± 0.37 under setting [1] and 4.96 ± 0.4 under setting [2]. Consider AEPAMPGRLYVHPDSPATGAHWMR [TBX5], for which the protein stability index is 3.5 ± 0.36 under setting [1] and 3.44 ± 0.21 under setting [2].

As to AFADRDQSERQRHESQQLATETQA [TEKT4], the protein stability index is, setting by setting: under setting [1], 5.11 ± 0.16; under setting [2], 5.36 ± 0.31. For AFDYIKQRRSMVSPNFGFMGQLLQ [DUSP5], the protein stability index runs as follows: under setting [1], 2.14 ± 0.25; under setting [2], 2.27 ± 0.39.

In the case of AFGAPIGGTLFSLEEGSSFWNQGL [CLCN6], the protein stability index by setting is: under setting [1], 2.47 ± 0.27; under setting [2], 2.47 ± 0.35. Consider AGAGWWVGAAYASLRRRGASAAAR [TRIM14], for which the protein stability index under setting [1] was 2.88 ± 0.22. Regarding AGGQTRLQASDRYRDLAGGTGRSA [FCHSD1], the protein stability index amounted to 4.25 ± 0.41 under setting [1] and 4.35 ± 0.28 under setting [2].

AGLGPGSRRPLDEAVAGAEGREAP [DENND6A]: the protein stability index is, setting by setting: under setting [1], 5.39 ± 0.23; under setting [2], 5.04 ± 0.39. The corresponding values for AGRAAAPELSYRVCVGSDVTSIHK [MYORG] are 3.32 ± 0.17 and 3.35 ± 0.24. The corresponding values for AGRQSVSGRKNSTSKDLVTLGASS [C6orf223] are 4.4 ± 0.16 and 4.49 ± 0.13. Consider AGSKVKDMAGDWHWALRVTPGLGV [SPNS1], for which the protein stability index is 2.07 ± 0.28 under setting [1] and 2.1 ± 0.26 under setting [2]. As for AHEVLQELRDISSMAMEYFDEKIV [FBXO28], the protein stability index worked out at 3.14 ± 0.19 under setting [1] and 3.26 ± 0.45 under setting [2]. The matching figures for AHFSPFLYYQSQELPNGSVKEAPA [PDZK1]: 3.45 ± 0.13 and 3.33 ± 0.13. The matching figures for AHRGRLNIQAGINENDFYDGAWCA [CPXM2]: 3.34 ± 0.86 and 3.29 ± 0.46. Consider AILRVIRLVRVFRIFKLSRHSKGL [KCNA1], for which the protein stability index reads like this: under setting [1], 2.28 ± 0.36; under setting [2], 2.46 ± 0.24. As for AIPITELTKSQVQDKPYKCTDCGK [ZNF8], the protein stability index stood at 4.25 ± 0.2 under setting [1] and 4.3 ± 0.21 under setting [2]. Regarding AIQAFLDKCSAPKIWRTPNGKTIE [IQUB], the protein stability index under setting [1] was 2.36 ± 0.48 and the protein stability index under setting [2] stood at 2.27 ± 0.22. For the sequence AISLTKCLESTKLLADLKKCGDLE [MIA2], the protein stability index was 2.64 ± 0.57 under setting [1] and 2.79 ± 0.69 under setting [2].

On to AKLVPSEREASPSNSCQDSTDTES [IKZF1], for which the protein stability index by setting is: under setting [1], 5.41 ± 0.41; under setting [2], 5.53 ± 0.24. AKPRATWTLKLDGNLQLDCLAQGW [RTP4] showed a protein stability index under setting [1] of 2.17 ± 0.24 and a protein stability index under setting [2] of 2.33 ± 0.57. AKSRAEAALEEESRQRQSRMEKGE [SMARCE1]: the protein stability index by setting is: under setting [1], 5.55 ± 0.22; under setting [2], 5.38 ± 0.22. As for ALAHCHQHGLVLRDLKLCRFVFAD [TRIB3], the protein stability index reads like this: under setting [1], 2.44 ± 0.43; under setting [2], 2.23 ± 0.23. The corresponding values for ALARLGTVTVISPLELMRTKLQAQ [SLC25A39] are 2.18 ± 0.39 and 2.15 ± 0.72.

With ALATVSLLSLVTFTFLSAKCLQGN [PCDHGC5], the protein stability index is, setting by setting: under setting [1], 3.2 ± 0.29; under setting [2], 3.16 ± 0.23. Consider ALCVVDTIKRSSQTGEWQNIAIMT [GFOD1], for which the protein stability index runs as follows: under setting [1], 2.31 ± 0.24; under setting [2], 2.2 ± 0.14.

For the sequence ALFKANRLEKAVAAAYTFLQRNPK [P3H4], the protein stability index is 2.48 ± 0.27 under setting [1] and 2.12 ± 0.53 under setting [2]. With ALGWAPAAPPPLKDDPEGDRDGCV [ZBED3], the protein stability index stood at 5.34 ± 0.17 under setting [1] and 5.54 ± 0.3 under setting [2].

As to ALHLAARNGHLATVKLLVEEKADV [RIPK4], the protein stability index is, setting by setting: under setting [1], 2.85 ± 0.17; under setting [2], 3.06 ± 0.3. As for ALMHELSNDGARRQFEFYLEEMIL [BTBD10], the protein stability index stood at 2.24 ± 0.037 under setting [1] and 2.36 ± 0.69 under setting [2]. The matching figures for ALNFMKGCLKMNPDDRLTCSQLLE [CDKL4]: 2.32 ± 0.18 and 2.55 ± 0.38. In turn, ALQAAAHASVDIKDVLDFYKQWKE [SMG5] had a protein stability index under setting [1] of 3.19 ± 0.14 and a protein stability index under setting [2] of 3.37 ± 0.31. The sequence ALSSFREESRFCDAHLVLDGEEIP [GAN] displayed a protein stability index under setting [1] of 4.51 ± 0.18 and a protein stability index under setting [2] of 4.59 ± 0.14. Sequence ANHVFFLLYLLHILLLDGAAWLTL [FADS1] returned a protein stability index under setting [1] of 3.23 ± 0.61 and a protein stability index under setting [2] of 3.39 ± 0.6. The corresponding values for ANYIDGYRKQNAYIATQGSLPETF [PTPRD] are 2.94 ± 0.25 and 3.13 ± 0.45. In the case of APGVDLSRILNEMRDQYEQMAEKN [KRT16], the protein stability index under setting [1] stood at 4.27 ± 0.35 and the protein stability index under setting [2] is 4.42 ± 0.16. On to APLSSRKHVLYVEHRHLNPDTELK [TCF25], for which the protein stability index was 3.72 ± 0.35 under setting [1] and 3.87 ± 0.51 under setting [2]. On to APWWFWLSLTGVSLAGALGVKFVG [POMT2], for which the protein stability index is, setting by setting: under setting [1], 2.48 ± 0.23; under setting [2], 2.27 ± 0.15.

On to AQAGTPAPTKPHDYRQEQPETFWI [SPAG8], for which the protein stability index is 3.54 ± 0.29 under setting [1] and 3.59 ± 0.29 under setting [2]. For AREGAGLVVASGVIYCLGGYDGLN [KLHL12], the protein stability index turned out to be 2.81 ± 0.59 under setting [1] and 2.39 ± 0.51 under setting [2]. In the case of AREGSSEPWLPLTDGRSPRRSRDP [PLEKHN1], the protein stability index reads like this: under setting [1], 5.17 ± 0.43; under setting [2], 5.1 ± 0.098.

ARNGNAEEVRQLLETMARNEVIAD [OSBPL1A] displayed a protein stability index under setting [1] of 4.11 ± 0.061 and a protein stability index under setting [2] of 4.07 ± 0.32. The sequence ASGSVLRLVDAVLGAEIRNGMAII [HDAC6] displayed a protein stability index under setting [1] of 2.91 ± 0.56 and a protein stability index under setting [2] of 2.55 ± 0.58. ASLQASIFSGAASLGYGTNVAATG [APBB1IP] had a protein stability index under setting [1] of 2.95 ± 0.27 and a protein stability index under setting [2] of 2.85 ± 0.33. As for ASLSNQECQLYPRRSQQQQVPVVD [SNURF], the protein stability index was 4.57 ± 0.14 under setting [1] and 4.46 ± 0.24 under setting [2]. The corresponding values for ASTEADKRLSRFDIEMSMRGDIFE [NLN] are 4.02 ± 0.57 and 4.14 ± 0.27. The corresponding values for ASVDYIRKLQKEQQRSKDLESRQR [TFE3] are 4.06 ± 0.24 and 4.18 ± 0.13. Consider ATKSHVDKVIMKLGKTNAKAVSEM [DYNC2LI1], for which the protein stability index by setting is: under setting [1], 3.57 ± 0.21; under setting [2], 3.51 ± 0.3. Regarding ATTAATAAATTTTTTSAATATTAP [SNAP91], the protein stability index runs as follows: under setting [1], 5.36 ± 0.22; under setting [2], 5.52 ± 0.22. Regarding AVINWVKHAKKEREESLPNLLQYV [KLHL12], the protein stability index is, setting by setting: under setting [1], 2.02 ± 0.32; under setting [2], 2.49 ± 0.54. In the case of AVIYLGYCFCGWIVLGPYHVKFRS [MCOLN1], the protein stability index under setting [1] was 3.08 ± 1.1 and the protein stability index under setting [2] is 2.86 ± 0.52.

AVNQKIDRESLCGASTSCLLPVQV [PCDHGC5]: the protein stability index is, setting by setting: under setting [1], 2.99 ± 0.13; under setting [2], 3.26 ± 0.65. Consider AYTRYLGDLSGGQVLKKIAQKALD [HMOX1], for which the protein stability index under setting [1] was 2.29 ± 0.19 and the protein stability index under setting [2] was determined as 2.23 ± 0.34.

For the sequence CAPCPRRSEPVVQCQYPSGAEAG [IRX6], the protein stability index (treatment: DMSO, c terminus: native) stood at 2.67 ± 0.7 and the protein stability index (treatment: MLN4924 1 uM, 8 h, c terminus: native) came to 2.3 ± 0.41. On to CASPVTGPGSKRDAHFCAVCSDYA [ESR2], for which the protein stability index reads like this: under setting [1], 3.08 ± 0.22; under setting [2], 3.16 ± 0.29. For the sequence CEYNFVSPSKSFWTRITCAEEGWS [CFHR2], the protein stability index runs as follows: under setting [1], 2.31 ± 0.35; under setting [2], 2.05 ± 0.089. For CGDYFPDGITNGASWYSLSKGMQD [CPN1], the protein stability index reads like this: under setting [1], 2.52 ± 0.12; under setting [2], 2.74 ± 0.14. In turn, CGKYFQGRGLKSHAYIHSVQFSHH [USP39] registered a protein stability index under setting [1] of 2.37 ± 0.42 and a protein stability index under setting [2] of 2.04 ± 0.56.

Turning to CGPIAGSRQALSFEVPPCNYDPEK, the protein stability index by setting is: under setting [1], 4.24 ± 0.23; under setting [2], 4.13 ± 0.46. Take CHDKYTKIFNDFKDRMKSDHKRET [ZMYND11]: the protein stability index was determined as 4.08 ± 0.28 under setting [1] and 3.9 ± 0.28 under setting [2].

As to CHSCQLYLPSTEFSVSSTSRRIYR [IQUB], the protein stability index was determined as 2.45 ± 0.15 under setting [1] and 2.73 ± 0.54 under setting [2].

Consider CIRLWKYALDMQQSNLEPLSPMTA [FEM1A], for which the protein stability index worked out at 2.52 ± 0.54 under setting [1] and 2.34 ± 0.35 under setting [2].

In turn, CMHEVHTFVSTCQAIDATVAAELL [HES6] returned a protein stability index under setting [1] of 2.8 ± 0.85 and a protein stability index under setting [2] of 2.34 ± 0.3.

The values above are taken from the supplement of paper PMC10567573.
